Data published in patent US9879058B2, “Use of compounds that selectively modulate astrocytic release of substances through hemichannels of connexins and pannexins, without influencing gap junctions, for the treatment of psychiatric disorders” (Universidad Andres Bello, priority 2012, dated 2018).
“Also recorded” adds a separate entry of the source. No end group written: not given here.

Biological target: T1, Cx43 hemichannels (Rattus norvegicus, UniProt P08050)
T1 construct: endogenous in cells; host or cells: primary hippocampal astrocytes of newborn (PN1) rats
Experiment: Ethidium (Etd) dye uptake in astrocytes
Format: cell-based
Settings: 10 min preincubation
Protocol: F. Immunohistochemistry: Brain slices previously fixed in buffered 4% paraformaldehyde and maintained in 30% sucrose were mounted in gelatin coated glass slides. After rinsing with PBS, slices were blocked and permeabilized with 1% bovine serum albumin (BSA, Sigma-Aldrich), and 3% Triton X-100 in PBS for 1 h at room temperature. After rinsing again, sections were incubated overnight at 4° C. with the primary anti-Cx43 antibody (Sigma). Afterwards, sections were rinsed with PBS and incubated for 1 h at 37° C. with Alexa Fluor® 488-conjugated secondary antibody. […]
G.2. […] H. Dye uptake: For single image visualization of dye uptake, astrocytes were bathed in recording solution [in mM: NaCl (148), KCl (5), CaCl2 (1.8), MgCl2 (1), glucose (5), HEPES (5), pH=7.4] containing 5 μM ethidium (Etd) (Sigma-Aldrich, St-Louis, Mo.), and fluorescence intensity was recorded for 10 min in selected cells (ROI, regions of interest). […] Metafluor software (version 6.2R5, Universal Imaging Co., Downingtown, Pa., USA) was used for off-line image analysis and fluorescence quantification.
For data representation, the average of two independent background fluorescence intensity measurements (FB, expressed as arbitrary units, AU) was subtracted from the fluorescence intensity in each cell (F1). […] Slopes of dye uptake were calculated using Microsoft Excel software and expressed as AU/min. […]

T1 sequence (P08050 whole entry): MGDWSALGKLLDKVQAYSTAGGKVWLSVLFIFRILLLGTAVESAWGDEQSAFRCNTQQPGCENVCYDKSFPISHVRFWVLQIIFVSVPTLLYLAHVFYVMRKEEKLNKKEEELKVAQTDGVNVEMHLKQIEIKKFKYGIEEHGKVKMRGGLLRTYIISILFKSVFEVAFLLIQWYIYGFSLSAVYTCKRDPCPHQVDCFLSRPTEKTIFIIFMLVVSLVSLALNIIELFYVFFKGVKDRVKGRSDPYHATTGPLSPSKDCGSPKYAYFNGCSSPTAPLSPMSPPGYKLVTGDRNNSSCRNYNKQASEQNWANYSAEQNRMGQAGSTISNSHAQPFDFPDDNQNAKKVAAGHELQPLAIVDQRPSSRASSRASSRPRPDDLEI

YGRKKRRQRRRDGANVDMHLKQIEIKKFKYGIEEHGK [TAT-Cx43L2, synthetic cell-permeable peptide corresponding to the Cx43L2 region (aa 119-144) of the cytoplasmic loop of Cx43]
hemichannel activity (Etd uptake) (control conditions): blocked astrocyte hemichannel activity; also recorded: inhibited hemichannel activity | hemichannel activity (Etd uptake) (divalent cation-free solution (DCFS)): complete inhibition of hemichannel activity; also recorded: reduced Etd uptake to the same level as in control cells
